In paper PMC5836133, “The intracellular immune receptor Rx1 regulates the DNA-binding activity of a Golden2-like transcription factor”:
Several values for one entry are separate records, joined by “and”; a condition that tells them apart may be missing. Identical values can stand only once.

T1: NbGlk1(83-402) (Nicotiana benthamiana)
T1 chain: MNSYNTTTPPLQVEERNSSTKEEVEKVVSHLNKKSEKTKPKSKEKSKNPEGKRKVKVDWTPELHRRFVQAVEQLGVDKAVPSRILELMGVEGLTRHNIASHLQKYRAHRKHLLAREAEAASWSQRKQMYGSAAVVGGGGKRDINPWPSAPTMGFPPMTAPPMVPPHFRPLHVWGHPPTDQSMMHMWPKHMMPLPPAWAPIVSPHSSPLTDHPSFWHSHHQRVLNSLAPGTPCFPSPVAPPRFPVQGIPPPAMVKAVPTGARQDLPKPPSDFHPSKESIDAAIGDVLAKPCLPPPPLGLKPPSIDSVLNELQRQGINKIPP

T2: NbGlk1(83-243) (Nicotiana benthamiana)
T2 chain: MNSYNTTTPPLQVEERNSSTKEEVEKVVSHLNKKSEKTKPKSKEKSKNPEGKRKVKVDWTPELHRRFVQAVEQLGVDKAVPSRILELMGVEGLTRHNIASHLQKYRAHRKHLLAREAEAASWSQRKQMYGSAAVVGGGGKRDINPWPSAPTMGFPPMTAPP

T3: NbGlk1(83-243) (Nicotiana benthamiana, UniProt A0A1S4ALG4 83-252)
T3 sequence: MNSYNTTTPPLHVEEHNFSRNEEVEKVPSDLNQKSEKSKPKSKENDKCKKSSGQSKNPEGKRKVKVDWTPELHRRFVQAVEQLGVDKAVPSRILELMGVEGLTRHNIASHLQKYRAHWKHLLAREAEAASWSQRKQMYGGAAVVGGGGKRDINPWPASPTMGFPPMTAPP

T4: NbGlk1(83-402) (Nicotiana benthamiana, UniProt A0A1S4ALG4 83-410)
T4 sequence: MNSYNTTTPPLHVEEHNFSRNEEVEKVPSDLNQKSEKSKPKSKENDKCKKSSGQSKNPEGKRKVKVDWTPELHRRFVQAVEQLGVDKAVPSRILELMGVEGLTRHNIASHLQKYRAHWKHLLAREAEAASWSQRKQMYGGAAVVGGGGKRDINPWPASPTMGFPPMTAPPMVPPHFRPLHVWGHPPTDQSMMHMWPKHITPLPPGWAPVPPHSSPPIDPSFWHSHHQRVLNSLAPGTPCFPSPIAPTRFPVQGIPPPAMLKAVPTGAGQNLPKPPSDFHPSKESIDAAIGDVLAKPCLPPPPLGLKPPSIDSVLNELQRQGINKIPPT


What was measured:
NbGlk1(83-402) [1] = target: T1, NbGlk1(83-402); assay: fluorescence anisotropy; Fluorescence anisotropy: 20 mM Tris-HCl pH 7.4, 140 mM NaCl, 1 mM DTT, 10 nM labelled DNA; temperature not stated. PBM conditions as in cited protocols.; conditions: protein: recombinant, tags: His6 (pET14b), annealed complementary oligonucleotides
NbGlk1(83-243) [2] = target: T2, NbGlk1(83-243); assay: as above; conditions: protein: recombinant, tags: His6 (pET14b), annealed complementary oligonucleotides
NbGlk1(83-243) [3] = target: T3, NbGlk1(83-243); assay: fluorescence anisotropy; conditions: 20 mM Tris-HCl pH 7.4, 140 mM NaCl, 1 mM DTT, 10 nM fluorescein-labelled dsDNA, temperature not stated, Kd unit uM inferred from text (Kd >1 uM)
NbGlk1(83-402) [4] = target: T4, NbGlk1(83-402); assay: fluorescence anisotropy; conditions: 20 mM Tris-HCl pH 7.4, 140 mM NaCl, 1 mM DTT, 10 nM fluorescein-labelled dsDNA, temperature not stated, Kd unit uM inferred from text (Kd >1 uM)
[5] = system: NbGlk1(1-243) (Nicotiana benthamiana); assay: fluorescence anisotropy; conditions: 20 mM Tris-HCl pH 7.4, 140 mM NaCl, 1 mM DTT, 10 nM fluorescein-labelled dsDNA, temperature not stated, Kd unit uM inferred from text (Kd >1 uM)
NbGlk1(83-243) [6] = target: T3, NbGlk1(83-243); assay: fluorescence anisotropy; no Rx1; 20 mM Tris-HCl pH 7.4, 140 mM NaCl, 1 mM DTT; 10 nM fluorescein-labelled dsDNA; temperature not stated; Kd unit uM inferred from text (Kd >1 uM); conditions: protein: recombinant; tags: His6 (pET14b); label: 6-carboxyfluorescein end label on FA-1; annealed complementary oligonucleotides
NbGlk1(83-402) [7] = target: T4, NbGlk1(83-402); assay: as above; conditions: protein: recombinant; tags: His6 (pET14b); label: 6-carboxyfluorescein end label on FA-1; annealed complementary oligonucleotides
NbGlk1(83-402) [8] = target: T4, NbGlk1(83-402); assay: fluorescence anisotropy; no Rx1 (Table 2 series); 20 mM Tris-HCl pH 7.4, 140 mM NaCl, 1 mM DTT; 10 nM fluorescein-labelled dsDNA; temperature not stated; Kd unit uM inferred from text (Kd >1 uM); conditions: protein: recombinant; tags: His6 (pET14b); label: 6-carboxyfluorescein end label on FA-1; annealed complementary oligonucleotides
[9] = label: 6-carboxyfluorescein end label on FA-3
[10] = label: 6-carboxyfluorescein end label on FA-5
[11] = label: 6-carboxyfluorescein end label on FA-1

| Binder | Kd (NbGlk1(83-402) [1]; [9]) | Kd (NbGlk1(83-243) [2]; [9]) [nM] | Kd (NbGlk1(83-243) [3]; + Rx1(1-144)) [µM] | Kd (NbGlk1(83-243) [3]; + Rx1(1-489)) [µM] | Kd (NbGlk1(83-243) [3]; no Rx1) [µM] | Kd (NbGlk1(83-402) [4]; + Rx1(1-144)) [µM] | Kd (NbGlk1(83-402) [4]; + Rx1(1-489)) [µM] | Kd (NbGlk1(83-402) [4]; + Rx1(GST-1-144)) [µM] | Kd (NbGlk1(83-402) [4]; no Rx1 (Table 2 series)) [µM] | Kd (NbGlk1(83-402) [4]; no Rx1) [µM] | Kd (NbGlk1(83-402) [1]; [10]) | Kd (NbGlk1(83-243) [2]; [10]) [nM] | Kd ([5]; + Rx1(1-144)) [µM] | Kd ([5]; + Rx1(1-489)) [µM] | Kd ([5]; no Rx1, text: only a weak affinity) [µM] | Kd (NbGlk1(83-243) [6]) [nM] | Kd (NbGlk1(83-402) [7]) [nM] | Kd (NbGlk1(83-402) [8]) [nM] | Kd (NbGlk1(83-402) [1]; [11]) | Kd (NbGlk1(83-243) [2]; [11]) [nM] |
| --- | --- | --- | --- | --- | --- | --- | --- | --- | --- | --- | --- | --- | --- | --- | --- | --- | --- | --- | --- | --- |
| AGATTT (concatenated AGATTTCC; FA-3/FA-4) (dsDNA) DNA 1: CAGATTTCCACAGATTTCCACAGATTTCCACAGATTTCCACAGATTTCCC DNA 2: GGGAAATCTGTGGAAATCTGTGGAAATCTGTGGAAATCTGTGGAAATCTG | 160 nM and 220 nM | 230 ± 10 | 0.76 | 0.65 | 0.23 | 0.46 | 0.34 | 0.73 | 0.22 | 0.16 | – | – | – | – | – | – | – | – | – | – |
| GATATC (concatenated GGATATCC; FA-5/FA-6) (dsDNA) DNA 1: CGGATATCCACGGATATCCACGGATATCCACGGATATCCACGGATATCCC DNA 2: GGGATATCCGTGGATATCCGTGGATATCCGTGGATATCCGTGGATATCCG | – | – | 0.4 | 0.5 | 0.18 | 0.3 | 0.19 | 0.34 | 0.11 | 0.08 | 80 nM and 110 nM | 180 ± 10 | > 1 | > 1 | > 1 | – | – | – | – | – |
| No site (FA-1/FA-2) (dsDNA) DNA 1: CACTGTGACACACTGTGACACACTGTGACACACTGTGACACACTGTGACC DNA 2: GGTCACAGTGTGTCACAGTGTGTCACAGTGTGTCACAGTGTGTCACAGTG | – | – | – | – | – | – | – | – | – | – | – | – | – | – | – | 330 ± 20 | 180 ± 10 | 320 ± 30 | 320 nM and 180 nM | 330 ± 20 |
